We go through 3 proteins from publication PMC4108180.

Common to all, as to assay: purified protein
Substrate in series [1]: C[C@H]1C[C@@H](O)[C@H](O)C(=O)O1
To be noted: 2.5 mM MOPS pH 7.1, 0.2 M NaCl, 1% DMSO, 30 °C.

Substrate in series [2]: O=C1O[C@H]([C@@H](O)CO)[C@@H](O)[C@@H]1O
As to conditions: 2.5 mM MOPS pH 7.1, 0.2 M NaCl, 1% DMSO, 30 °C.

Substrate in series [3]: O=C1O[C@@H](CO)[C@H](O)[C@@H](O)[C@@H]1O
As to conditions: 2.5 mM MOPS pH 7.1, 0.2 M NaCl, 1% DMSO, 30 °C.

Substrate in series [4]: C[C@H](O)[C@H]1OC(=O)[C@@H](O)[C@@H]1O
As to conditions: 2.5 mM MOPS pH 7.1, 0.2 M NaCl, 1% DMSO, 30 °C.

Substrate in series [5]: O=C1O[C@H](CO)[C@@H](O)[C@@H]1O
As to conditions: 2.5 mM MOPS pH 7.1, 0.2 M NaCl, 1% DMSO, 30 °C.

Substrate in series [6]: O=C1O[C@@H](CO)[C@@H](O)[C@@H]1O
To be noted: 2.5 mM MOPS pH 7.1, 0.2 M NaCl, 1% DMSO, 30 °C.

Substrate in series [7]: O=C(O)[C@@H](O)[C@H](O)[C@@H](O)[C@@H](O)CO
To be noted: 0.5 mM NAD+, 50 mM phosphate pH 7.5, 30 °C.

Substrate in series [8]: O=C(O)[C@@H](O)[C@H](O)[C@H](O)[C@@H](O)CO
As to conditions: 0.5 mM NAD+, 50 mM phosphate pH 7.5, 30 °C.

Substrate in series [9]: NC(=O)c1ccc[n+]([C@@H]2O[C@H](COP(=O)(O)OP(=O)(O)OC[C@H]3O[C@@H](n4cnc5c(N)ncnc54)[C@H](O)[C@@H]3O)[C@@H](O)[C@H]2O)c1
To be noted: with L-galactose, 50 mM BICINE pH 8.0, 30 °C, varied: cofactor.

B1: Bvu0220 (Phocaeicola vulgatus ATCC 8482) (protein)
chain: MMDFNIIDAHSHLWLRQDTEVNGLPIRTLTNGRSLFMGEERQMVPPFMIDGRNSAEVFLSNMDYAQVSAAVVTQEFIDGIQNEYLAKVSHKYPDRFFVCGMCEFRKPGYLQQAKELISSGFKAIKIPAHRLFLKEGRVMLNSDEMMEMFHYMQEKDIILSIDLADGDTQVQEMKEIIQEYPQLRIAIGHFGMVTTPHWQEQIKLARHKNVMIESGGITWLFNSEFYPFHGAVKAIKEAADLVGMDKLMWGSDYPRTITAITYKMSYDFILKTTEMTQEEKALFLGKNAERFYGFKNLISLPYIKNMSE
Usually Km stands for the concentration of substrate that gives half-maximal velocity. As a reminder, the kcat is the number of substrate molecules converted per active site and unit of time at saturation. In general, kcat/Km refers to the second-order rate constant that governs catalysis at low substrate concentration. For the protein B1, the Km stood at 32 ± 4 µM in “purified protein [1]”; 1950 ± 310 µM in the series “purified protein [2]”; 500 ± 40 µM in “purified protein [3]”; 1320 ± 210 µM in the series “purified protein [4]”; 1700 ± 140 µM in the series “purified protein [5]”; 5500 ± 550 µM in “purified protein [6]”. Moreover, the kcat in the series “purified protein [1]” is 23 ± 1 s⁻¹; in “purified protein [2]”, 34 ± 3 s⁻¹; in the series “purified protein [3]”, 38 ± 1 s⁻¹; in the series “purified protein [4]”, 23 ± 2 s⁻¹; in the series “purified protein [5]”, 1 ± 0.1 s⁻¹; in “purified protein [6]”, 5.3 ± 0.4 s⁻¹. For the same protein, the specificity constant (kcat/Km) in “purified protein [1]” was 720000 ± 80000 M⁻¹ s⁻¹; in the series “purified protein [2]”, 18000 ± 2000 M⁻¹ s⁻¹; in the series “purified protein [3]”, 80000 ± 5000 M⁻¹ s⁻¹; in “purified protein [4]” it was 18000 ± 2000 M⁻¹ s⁻¹; in “purified protein [5]” it was 500 ± 30 M⁻¹ s⁻¹; in “purified protein [6]”, 930 ± 40 M⁻¹ s⁻¹.

B2: Bvu0222 (Phocaeicola vulgatus ATCC 8482) (protein)
chain: MKAIQITAPSEMKVVDIEKPVLEPGEVLVKIKYVGFCGSDLNTFLGRNPMVKLPVIPGHEVGAVIEAVGKDVPDSLKPGMSVTVNPYTNCGKCASCRNGRVNACEHNETLGVQRNGAMCEYIALPWSKIIPAHRIPPRDCALIEPMSVGFHAVSRAQVTDIDIVMVIGCGMIGMGAIVRSALRGATVIAVDLDDEKLELAKRIGAHHTINSMTENVHECLTKITEGLGPDVVIEAVGSPATYVMAVNEVGFTGRVVCIGYAKSEVSFQTKYFVQKELDIRGSRNALPTDFRAVIRYMEQGTCPKNELISKVVKPEAAIQAMKEWAAAPGKVFRILVEFD
For the protein B2, in the series “purified protein [7]”, the Km was 510 ± 70 µM, the kcat was 0.2 ± 0.1 s⁻¹ and the kcat/Km is 390 ± 60 M⁻¹ s⁻¹. In the series “purified protein [8]”, the Km was determined as 36 ± 3 µM, the kcat stood at 0.6 ± 0.1 s⁻¹ and the kcat/Km was 17000 ± 1000 M⁻¹ s⁻¹.

B3: Bvu0219 (Phocaeicola vulgatus ATCC 8482) (protein)
chain: MNYNEIGKTGMRVSNLSFGASSLGGVFHDIREAEGIKAVYTAVENGMNFIDVSPYYGHYKAETVLGKALKEIPRDKYYLSTKVGRYGKDGVNTWDYSGKRATESVYESLDRLHIEYIDLINVHDVEFSDMNQVVNETLPALVELKKKGIVGHVGITDLQLENLKWIIDHSEPGTVESVLNFCHYCLNDEKLTDYLDYFESKNIGIINASPLSMGLLSQRGVPAWHPAPQSLVEACRKAVQHCLSKNYPIEKLAIQYSVSNPRIATTLFSSANPDNVLKNITYAEEPIDWNLVKEVQEIIGKQMRISWANS
As for B3, in “purified protein [9]”, the Michaelis constant (Km) turned out to be 3000 ± 200 µM, the catalytic constant (kcat) worked out at 25 ± 1 s⁻¹ and the kcat/Km worked out at 9000 ± 100 M⁻¹ s⁻¹.
